Source: patent US5656591

Target: commercial lactoferrin just as isolated from cow's milk (cow (bovine)) (UniProt P24627)

hydrolyzing rate: 11.3%
Substance: commercial swine pepsin (from UniProt P00791) (enzyme)
